Paper doi:10.1101/2020.08.11.244863

Experiments:
[1] = biological target: SARS-CoV-2 Nsp15 H250A (SARS-CoV-2); test: SEC
[2] = biological target: SARS-CoV-2 Nsp15 H235A (SARS-CoV-2); test: SEC
[3] = biological target: SARS-CoV-2 Nsp15 H235A (SARS-CoV-2); test: cryo-EM structure

Substance: SARS-CoV-2 Nsp15 H250A (enzyme)
- stoichiometry N [1]: 6

Substance: SARS-CoV-2 Nsp15 H235A (enzyme)
- stoichiometry N [2]: 6
- stoichiometry N [3]: 6
